Assay results from US20260042815A1, “UNIVERSAL T CELLS AND COMPOSITIONS AND METHODS OF USE THEREOF” (The Trustees of the University of Pennsylvania, priority 2022, published 2026).

Test system: stress ligands (MICA, MICB, ULBP 1-6) on K562 target cells
Test: Stress ligand blocking on K562 target cells with soluble NKG2D protein
Type: cell-based, human
Conditions: parental K562 and K878 targets, NK cells from two donors
Text: Soluble NKG2D protein was employed to block stress ligands (MICA, MICB, ULBP 1-6) on K562 target cells, which interfered with NKG2D mediated recognition of target cells.

B1: NKG2D protein: Soluble NKG2D protein employed to block stress ligands (MICA, MICB, ULBP 1-6) on K562 target cells (protein, UniProt P26718 73-216, looked up)
extracellular domain: IWSAVFLNSLFNQEVQIPLTESYCGPCPKNWICYKNNCYQFFDESKNWYESQASCMSQNASLLKVYSKEDQDLLKLVKSYHWMGLVHIPTNGSWQWEDGSILSPNLLTIIEMQKGDCALYASSFKGYIENCSTPNTYICMQRTV
modifications: extracellular domain
- Effect on target cell recognition by NK cells: minimal efficacy
